From paper PMC11259706 (The Journal of Biological Chemistry, 2024)

B1: Hsp70 10mer peptide Ac-GSGPTIEEVD-OH [modified: N-terminal acetyl; N-terminal acetyl] [not stated] / protein phosphatase 5 (PP5), human, full-length [human] (parent complex)
chain 1: GSGPTIEEVD
chain 2: MAMAEGERTECAEPPRDEPPADGALKRAEELKTQANDYFKAKDYENAIKFYSQAIELNPSNAIYYGNRSLAYLRTECYGYALGDATRAIELDKKYIKGYYRRAASNMALGKFRAALRDYETVVKVKPHDKDAKMKYQECNKIVKQKAFERAIAGDEHKRSVVDSLDIESMTIEDEYSGPKLEDGKVTISFMKELMQWYKDQKKLHRKCAYQILVQVKEVLSKLSTLVETTLKETEKITVCGDTHGQFYDLLNIFELNGLPSETNPYIFNGDFVDRGSFSVEVILTLFGFKLLYPDHFHLLRGNHETDNMNQIYGFEGEVKAKYTAQMYELFSEVFEWLPLAQCINGKVLIMHGGLFSEDGVTLDDIRKIERNRQPPDSGPMCDLLWSDPQPQNGRSISKRGVSCQFGPDVTKAFLEENNLDYIIRSHEVKAEGYEVAHGGRCVTVFSAPNYCDQMGNKASYIHLQGSDLRPQFHQFTAVPHPNVKPMAYANTLLQLGMM

Variants of: B1
Experiment: competition fluorescence polarisation; read at the highest peptide concentration, 100 µM; read off a plot

Variant | response [% tracer bound]
chain 1 GSGPTIEEAD [chain 1 V9A] | ~56
chain 1 E8A | ~74
chain 1 GSGPTAEEVD [chain 1 I6A] | ~12

The remaining lines, values ahead:

response [% tracer bound] | Variant
~36 | chain 1 GSGPTIAEVD [chain 1 E7A]
~110 | chain 1 GSGPTIEEVA [chain 1 D10A]
